The values that follow come from patent US11634477 (dated 2023).

The target of this assay is SARS-CoV-2 RBD (SARS-CoV-2, UniProt P0DTC2). Kind of assay: ELISA.

B1: C032 (antibody, V domains shown)
VH: EVQLVQSGAEVKKPGESLKISCKGSGYSFTSYWIGWVRQMPGKGLEWMGIIYPGDSDTRYSPSFQGQVTISADKSISTAYLQWSSLKASDTAMYYCARGVAVDWYFDLWGRGTLVTVSS
VL: QSVLTQPPSVSGAPGQRVTISCTGSSSNIGAGYDVHWYQQLPGTAPKLLIYGNSNRPSGVPDRFSGSKSGTSASLAITGLQAEDEADYYCQSYDSSLSALYVFGTGTKVTVL
Molecule B1 displayed an EC50 of 99.3 ng/mL.

B2: C040 (antibody, V domains shown)
VH: not shown
VL: SYELTQPPSVSVAPGQTARITCGGNNIGSKSVHWYQQKPGQAPVLVVYDDSDRPSGIPERFSGSNSGNTATLTISRVEAGDEADYYCQVWDSSSDQGVFGGGTKLTVL
Molecule B2 displayed an EC50 of 11.1 ng/mL.

B3: C038 (antibody, V domains shown)
VH: VQLVESGGGVVQPGRSLRLSCAASGFTFNRIAMYWVRQAPGKGLEWVAVISFDGSYEYYAESVKGRFAISRDNSKNTLYLQMNSLRAEDTAVYYCAKSPMGYCTNGVCYPDSWGQGTLVTVSS
VL: NFMLTQPHSVSESPGKTVTISCTGSSGSIASNYVQWYQQRPGSAPTTVIYEDTQRPSGVPDRFSGSIDSSSNSASLTISGLKTEDEADYYCQSYDINSRWVFGGGTKLTVL
The molecule B3 had an EC50 of 4.69 ng/mL.

B4: C160 (antibody, V domains shown)
VH: QVQLVQSGAEVKKPGASVKVSCKASGYTFTSYGISWVRQAPGQGLEWMGWISAYNGNTNYAQKLQGRVTMTTDTSTSTAYMELRSLRSDDTAVYYCARVPASYGDDDYYYYYGMDVWGQGTTVTVSS
VL: SYELTQPPSVSVSPGQTARITCSGDALPKQYAYWYQQKPGQAPVLVIYKDSERPSGIPERFSGSSSGTTVTLTISGVQAEDEADYYCQSADSSGTLWVFGGGTKLTVL
B4 displayed an EC50 of 2.54 ng/mL.

B5: C149 (antibody, V domains shown)
VH: QVQLVESGGGVVQPGRSLRLSCAASGFTFSTYGMHWVRQAPGKGLEWVAVISYDGSNKYFADSVKGRFTISRDNSKNTLYLQMNSLRPEDTAVYYCAKVGMEYSSGWYGEEIDFWGQGTLVTVSS
VL: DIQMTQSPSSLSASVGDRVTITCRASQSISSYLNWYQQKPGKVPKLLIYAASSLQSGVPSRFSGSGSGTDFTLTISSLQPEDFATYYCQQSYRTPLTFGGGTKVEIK
B5 came in with an EC50 of 1.79 ng/mL.

B6: C037 (antibody, V domains shown)
VH: QLVQSGPEVKKPGTSVKVSCKASGFTFTSSAMQWVRQARGQRLEWIGWIVVGSGNTNYAQKFQERVTITRDMSTSTAYMELSSLRSEDTAVYYCAAPYCSGGSCNDAFDIWGQGTMVTVSS
VL: not shown
Molecule B6 had an EC50 of 1.93 ng/mL.

B7: C036 (antibody, V domains shown)
VH: QVQLQQWGAGLLKPSETLSRTCAVFGGSFTNYYWSWIRQSPGKGLEWIGEINDSGITNYNPSLKSRVTISVDTSKNQFSLSLRSVTAADTAVYYCARRRSFSRPSSIDYWGQGTLVTVSS
VL: not shown
Turning to B7, the EC50 was 64.1 ng/mL.

B8: C163 (antibody, V domains shown)
VH: QVQLQQWGAGLLKPSETLSLTCAVSGGSLSGFYWTWIRQPPGKGLEWIGETNHFGSTDYKPSLKSRVTISVDMSRNQFSLKVTSVTAADTAVYYCARKPLLHSDLSPGAFDIWGQGTMVTVSS
VL: EIVLTQSPGTLSLSPGERATLSCRASQTVSANYLAWYQQKAGQAPRLLIYGASKRATGIPDRFSGSGSGTDFTLSISRLEPEDFAVYYCQQYVTTPRTFGGGTKVEI
B8 displayed an EC50 of 1.77 ng/mL.

B9: C161 (antibody, V domains shown)
VH: QVQLQQWGAGLLKPSETLSLTCAVSGGSLSGFYWTWIRQPPGKGLEWIGETNHFGSTDYKPSLKSRVTISVDMSRNQFSLIMTSVTAADTAVYYCARKTLLFSDFSPGAFDIWGQGTMVTVSS
VL: EIVLTQSPGTLSLSPGERATLSCRASQTLTANYLAWYQQKPGQAPRLLIYGASKRATGIPDRFSGSGSGTDFTLSISRLEPEDFAVYYCQQYGTTPRTFGGGTKVEI
The molecule B9 registered an EC50 of 1.63 ng/mL.

B10: C162 (antibody, V domains shown)
VH: QVQLQQWGAGLLKPSETLSLTCAVSGGSLSGFYWTWIRQPPGKGLEWIGETNHFGSTDYKASLKSRVTISVGMSRNQFSLKVTSLTAADTAVYYCARKPLLYSDFSPGAFDVWGQGTMVTVSS
VL: EIVLTQSPGTLSLSPGERATLSCRASQTLTANYLAWYQQKPGQAPRLLIYGASKRAAGIPDRFSGSGSGTDFTLSITRLEPEDFAVYYCQQYHTTPRTFGGGTKVEI
Molecule B10 showed a concentration giving a half-maximal response (EC50) of 1.18 ng/mL.
